One test addresses T1, Human heart chymase (Homo sapiens, UniProt P23946).
T1 construct: Human heart chymase was purified according to the method of Urata et al; from tissue; host or cells: human heart
T1 sequence (P23946 22-247): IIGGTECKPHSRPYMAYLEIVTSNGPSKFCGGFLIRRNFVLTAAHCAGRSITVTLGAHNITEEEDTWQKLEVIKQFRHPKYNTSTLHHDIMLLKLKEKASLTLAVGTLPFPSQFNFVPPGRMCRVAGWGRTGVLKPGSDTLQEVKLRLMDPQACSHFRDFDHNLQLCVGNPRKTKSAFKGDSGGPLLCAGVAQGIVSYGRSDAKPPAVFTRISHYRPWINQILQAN
The experiment in a line: Measurement of chymase inhibitory activity. As to conditions: purified human heart chymase, substrate Suc-Ala-Ala-Pro-Phe-MCA, 30° C. The test is classed as biochemical. The procedure:
Human heart chymase was purified according to the method of Urata et al. (J. Biol. Chem., 1990, 265, 22348). The inhibitory activity of the quinazoline derivatives of the present invention with respect to chymase was measured in the following manner. That is, the purified enzyme solution was diluted to a suitable concentration with 0.1M tris-hydrochloride buffer (pH=7.5), 1M sodium chloride, and 0.01% TritonX-100 to obtain an enzyme solution. A 10 mM dimethyl sulfoxide (hereinafter referred to as DMSO) solution of Suc-Ala-Ala-Pro-Phe-MCA (Peptide Institute) was diluted 20-fold at the time of use by 0.1M tris-hydrochlorate, 1M sodium chloride, and 0.01% TritonX-100 to obtain the substrate solution.
75 μl of the enzyme solution warmed to 30° C. was mixed with 5 μl of DMSO solution of the test sample. The mixture was preincubated at 30° C. for 10 minutes. Next, 20 μl of a substrate solution warmed to 30° C. was mixed with the test sample-enzyme mixture and incubated at 30° C. After 10 minutes, 50 μl of 30% acetic acid was added to stop the enzymatic reaction. The amount of the AMC produced was quantified using a fluorescent photometer. At the same time, a blind test was carried out by adding, instead of the test sample solution, 5 μl of DMSO and performing the same reaction. […]

The test system of test [1] is human polymorphonuclear leukocytes (PMN). Kind of test: Human chymase-induced migration of polymorphonuclear leukocytes, 48-well chemotaxis chamber. The test is classed as cell-based. How it is done:
In Example 6, it was shown that a remarkable infiltration of leukocytes is observed in late-phase reaction of human chymase-induced dermatitis. The effect of human chymase on the migration of polymorphonuclear leukocytes (PMN) in vitro was investigated for the purpose of investigating the mechanism of chymase-induced leukocyte infiltration. PMN was isolated by adding a ⅕th volume of 6% dextran solution to heparinized whole blood from normal healthy subject and allowing it to stand at 37° C. for 1 hour, then layering the supernatent on Ficoll-Paque (Amersham Pharmacia Biotech) and centrifuging it. Further, the migration of PMN was measured by using a 48-well chemotaxis chamber (NeuroProbe Co.) by the textbook method (Seibutsu Yakkagaku Jikken Koza (Biopharmacology Experiment Lectures) 12, 315, Hirokawa Shoten). That is, a medium containing human chymase (200 to 800 nM) or fMLP (N-formyl-L-methionyl-L-leucyl-L-phenylalanine, Sigma-Aldrich Co.) (10 nM) was placed in the lower well of the chamber. The upper well and the lower well were separated by a polycarbonate filter (pore size 5 μm) (NeuroProbe Co.) PMN (1×10^6/ml) was added to the upper well and cultured at 37° C. for 1 hour, then the filter was fixed, stained and the number of cells in the membrane were counted under a microscope (400×) (Seibutsu Yakkagaku Jikken Koza (Biopharmacology Experiment Lectures) 12, 315). For the cell staining, a hemacolor solution (Merck) was used. In this test, when investigating the effect of the chymase inhibitor, a chymase inhibitor (Compound 18 or Compound 34) was dissolved in dimethyl sulfoxide and added to the lower well of the chamber just before the addition of the human chymase. The concentration of the compound was adjusted so that the final concentration of the dimethyl sulfoxide became 1%.

A further test relates to eosinophils of the skin. Kind of test: Administration of human chymase to mouse ears, number of eosinophils of skin. The test is classed as in vivo, mice. The note with it: p<0.01. How it is done: The effect of a chymase inhibitor on the infiltration of eosinophils of the skin in the test of Example 10 was studied. That is, 48 hours after the sixth application of hapten, the ears of the mice were fixed with formalin and paraffin sections prepared in accordance with an ordinary method. The sections were stained with Fast Green (Fluka), known to specifically stain eosinophils (Current Protocol in Immunology, Wiley Interscience). That is, the deparaffined sections were fixed with 100% methanol for 1 minute, then stained for 30 minutes by 0.2% Fast Green dissolved in 70% ethanol. The eosinophils were measured by randomly selecting 10 fields (×400) under a microscope and counting the number of cells per area using an ocular grid. As the chymase inhibitor, the Compound 18 and Compound 34 were used and =administered by the method described in Example 10. […] The thickness of the ear was measured by a micrometer (Digimatic Indicator, Mitsutoyo Co.) immediately before each administration of chymase and 1 hour, 6 hours, 24 hours, and 48 hours after the administration to find the increase from the ear thickness before the first administration of chymase. […] The number of eosinophils of the skin was measured by the method described in Example 11. […]

A value given as a limit tells only on which side of the number the result lay.

In general, IC50 refers to the concentration at which inhibition is half-maximal. Higher therefore signals weaker potency in that assay.

`CC(C(=O)O)C(=O)Nc1cccc(S(=O)(=O)n2c(=O)[nH]c3cc(Cl)ccc3c2=O)c1` (centres unmarked) [Compound 13, 2-{3-[(7-chloro-2,4(1H, 3H) -quinazolinedion-3-yl)sulfonyl]phenylaminocarbonyl}propionic Acid] yielded an IC50 against Human heart chymase of 300 nM.

B1: human chymase: recombinant human mature chymase expressed in CHO dhfr- cells, purified; serine protease of mast cells (protein, UniProt P23946 22-247, looked up)
Chymase: IIGGTECKPHSRPYMAYLEIVTSNGPSKFCGGFLIRRNFVLTAAHCAGRSITVTLGAHNITEEEDTWQKLEVIKQFRHPKYNTSTLHHDIMLLKLKEKASLTLAVGTLPFPSQFNFVPPGRMCRVAGWGRTGVLKPGSDTLQEVKLRLMDPQACSHFRDFDHNLQLCVGNPRKTKSAFKGDSGGPLLCAGVAQGIVSYGRSDAKPPAVFTRISHYRPWINQILQAN
Take B1: the “migration-promoting activity relative to fMLP” value in test [1] (200 to 400 nM chymase equals 10 nM fMLP) is on record as “about 1/30”. Also, in test [1] (chymase 200 to 800 nM in lower well, p<0.05 Dunnett's test), the “concentration at which promotion of human PMN migration is statistically significant” value was at least 400 nM. In the test with eosinophils of the skin (24 hours after single intradermal administration of 2.0 μg), the “increase in number of eosinophils compared with ear administered saline” value is “approximately 7.6 fold”. Also, in the test on eosinophils of the skin (administered at 1 week intervals four times in total, 1 week after administration), the “increase in number of eosinophils compared with group administered saline” value was “about 21 fold”.

The record behind these values is US7618977B2, “Method of treating dermatitis comprising administering a chymase inhibitor” (Asubio Pharma Co., Ltd., priority 2000, dated 2009).
